Experimental findings from PMC7647119 are described below.

The target of the data set is T1, MADS29-His (Oryza sativa) (UniProt Q6H711).
T1 sequence: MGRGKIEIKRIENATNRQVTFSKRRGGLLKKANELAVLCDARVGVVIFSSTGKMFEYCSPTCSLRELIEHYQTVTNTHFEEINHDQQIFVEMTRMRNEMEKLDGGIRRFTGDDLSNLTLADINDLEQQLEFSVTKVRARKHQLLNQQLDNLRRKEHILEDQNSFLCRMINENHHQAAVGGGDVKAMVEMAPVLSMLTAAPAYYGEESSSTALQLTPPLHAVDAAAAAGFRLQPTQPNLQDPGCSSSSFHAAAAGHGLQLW
Description: EMSA. As to conditions: LightShift Chemiluminescent EMSA Kit per manufacturer; buffer, salt, pH and temperature not stated. A general note: In EMSA bound probe runs differently from free probe, usually more slowly.

For “ATTTTGCTCATTTGGTATAGATCTTTCTTACATATATAAGACTGATCTCTATAGTGGTGA (double strand) [POsAsp1 -1412 CArG probe]”, the binding entry is on record as “binds”.
With “TCTATAGACTAGTCAGCATTTTTTTTAGCTCCATATTTGGATTTGTCAACTTCAGAAAAG (double strand) [POsAsp1 -770 CArG probe]” the entry was “binds”.
